Data reported in article PMC6335053.

Biological target: Human full-length GIRK4 (purified) (human) (UniProt P48544)
UniProt P48544, sequence (P48544 whole entry): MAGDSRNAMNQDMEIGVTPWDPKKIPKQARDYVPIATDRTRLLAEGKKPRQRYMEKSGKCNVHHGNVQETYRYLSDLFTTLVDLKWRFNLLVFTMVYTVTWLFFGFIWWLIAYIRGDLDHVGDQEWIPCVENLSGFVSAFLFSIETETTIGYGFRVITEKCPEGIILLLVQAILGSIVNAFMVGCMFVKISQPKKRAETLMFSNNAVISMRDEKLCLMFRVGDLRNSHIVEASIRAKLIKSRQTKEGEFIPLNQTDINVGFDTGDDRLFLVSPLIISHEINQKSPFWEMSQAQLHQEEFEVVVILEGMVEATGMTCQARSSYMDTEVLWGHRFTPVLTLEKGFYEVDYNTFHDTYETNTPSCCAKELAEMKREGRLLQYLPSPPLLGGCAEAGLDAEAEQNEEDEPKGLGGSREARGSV

inward GIRK current in planar lipid bilayers: increase on fusing further Gβγ vesicles to a bilayer holding GIRK and Gβγ at 1:0.1 (wt:wt), with 32 µM C8-PIP2 and 32 mM Na+: 5 fold
Substance: Human lipid-anchored Gβ1γ2 (from UniProt P62873 1-340; P59768 1-71) (complex)
